The target in assay [1] is T1, human BCMA (huBCMA), full length, on cells (human, UniProt Q02223 1-184).
T1 chain: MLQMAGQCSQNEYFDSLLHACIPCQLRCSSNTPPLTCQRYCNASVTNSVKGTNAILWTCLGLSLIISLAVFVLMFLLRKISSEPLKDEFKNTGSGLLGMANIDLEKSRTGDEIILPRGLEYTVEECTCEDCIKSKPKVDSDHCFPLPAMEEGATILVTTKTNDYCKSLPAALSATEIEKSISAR
Briefly: cell-based or functional assay.

The target of assay [2] is T1, human BCMA (huBCMA), full length, on …. The assay can be described thus: FACS, H929 cells.
Assay [3] shares this target. The assay can be described thus: FACS, H929 cells. On the technique in general: In flow cytometry, cells or beads pass a laser one at a time.
The target is the same in assay [4]. Briefly: FACS, H929 cells.
The target in assay [5] is T2, recombinant soluble human BCMA (Biacore analyte of Example 2) (human, UniProt Q02223 1-54).
T2 construct: also called rhu BCMA; rsol.hu BCMA
T2 sequence: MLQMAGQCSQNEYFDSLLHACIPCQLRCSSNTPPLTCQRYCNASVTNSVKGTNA
Briefly: Biacore 3000 SPR, antibody captured on anti-human IgG, rhu BCMA as analyte, 25 C. A general note: SPR reads the build-up and loss of mass on a sensor chip optically.

For assay [6], the target named is T3, clipped form of the rhuBCMA fusion protein, SEQ ID NO:356 (human).
T3 chain: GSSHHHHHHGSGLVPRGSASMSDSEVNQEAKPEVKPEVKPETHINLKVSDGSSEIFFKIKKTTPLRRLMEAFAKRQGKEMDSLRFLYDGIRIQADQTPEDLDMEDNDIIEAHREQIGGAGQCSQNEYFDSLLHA
Briefly: LC/MS (ESI-TOF, reduced sample) of the SEC-isolated 2A1 + SumoBCMA sample.

The target in assay [7] is T4, clipped form of the rhuBCMA fusion protein, SEQ ID NO:357 (human).
T4 chain: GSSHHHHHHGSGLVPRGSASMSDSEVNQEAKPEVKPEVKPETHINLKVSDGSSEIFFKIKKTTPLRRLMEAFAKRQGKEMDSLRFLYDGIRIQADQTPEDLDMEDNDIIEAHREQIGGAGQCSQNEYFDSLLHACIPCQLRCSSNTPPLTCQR
The assay is described as above.

In assay [8] the target is T5, clipped form of the rhuBCMA fusion protein, SEQ ID NO:354 (human).
T5 construct: also called Peak A
T5 chain: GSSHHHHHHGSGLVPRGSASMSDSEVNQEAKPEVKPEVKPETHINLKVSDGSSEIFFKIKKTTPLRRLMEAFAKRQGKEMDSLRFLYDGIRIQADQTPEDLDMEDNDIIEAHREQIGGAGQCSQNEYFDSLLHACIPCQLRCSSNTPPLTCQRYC
The description is as above.

Assay [9] has as its target T6, clipped form of the rhuBCMA fusion protein, SEQ ID NO:355 (human).
T6 chain: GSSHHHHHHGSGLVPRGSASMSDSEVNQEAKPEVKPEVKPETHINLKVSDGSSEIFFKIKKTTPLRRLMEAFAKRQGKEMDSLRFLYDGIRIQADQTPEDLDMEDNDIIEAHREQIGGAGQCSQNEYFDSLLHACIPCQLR
Described as above.

In assay [10] the target is T1, human BCMA (huBCMA), full length, on …. The assay can be described thus: FACS equilibrium titration on 293T cells transiently transfected with human BCMA (relative FACS affinity).
Assay [11] addresses T7, cynomolgus BCMA, on transiently transfected 293T cells (cynomolgus (Macaca fascicularis), UniProt Q02223 1-184 (human entry)).
T7 construct: also called cyno BCMA
Briefly: FACS equilibrium titration on 293T cells transiently transfected with cynomolgus BCMA (relative FACS affinity).

The target of assay [12] is T8, rhuBCMA fusion protein (6xHis::Sumo::huBCMA(aa 5-51)::GGS::G3::Avi) (human).
T8 construct: Monomeric tagged fusion; the entry holds the tags, Sumo and the BCMA part; also called Sumo-BCMA; SumoBCMA
T8 chain: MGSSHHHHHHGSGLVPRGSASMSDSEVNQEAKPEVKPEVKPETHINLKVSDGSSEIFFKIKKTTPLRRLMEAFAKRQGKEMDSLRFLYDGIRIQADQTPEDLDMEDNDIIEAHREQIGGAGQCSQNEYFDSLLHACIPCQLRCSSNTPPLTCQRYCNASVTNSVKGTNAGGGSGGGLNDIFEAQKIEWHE
The assay can be described thus: size exclusion chromatography (S200 column, PBS, UV trace), 500 ug antibody incubated with 500 ug sumoBCMA. A general note: In gel filtration, larger molecules generally elute earlier.

Assay [13] has as its target T9, TACI, full length, on transiently transfected cells (human, UniProt O14836 1-293).
T9 construct: whole, on cells; also called huTACI
T9 sequence (looked up): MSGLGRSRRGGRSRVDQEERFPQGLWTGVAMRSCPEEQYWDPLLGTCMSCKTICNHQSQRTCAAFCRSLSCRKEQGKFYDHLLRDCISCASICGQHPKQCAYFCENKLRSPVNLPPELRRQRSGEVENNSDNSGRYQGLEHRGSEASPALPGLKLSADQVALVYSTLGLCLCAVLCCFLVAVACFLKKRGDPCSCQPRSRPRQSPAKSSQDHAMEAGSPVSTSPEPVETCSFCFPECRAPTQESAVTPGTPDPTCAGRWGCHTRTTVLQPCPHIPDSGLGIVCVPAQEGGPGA
The assay can be described thus: FACS on cells transiently transfected with the full-length receptor; positive if MFI is two times the negative control.

Assay [14] concerns the target T10, BAFF-R, full length, on transiently transfected cells (human, UniProt Q96RJ3 1-184).
T10 construct: whole, on cells; also called huBAFF-R
T10 sequence (looked up): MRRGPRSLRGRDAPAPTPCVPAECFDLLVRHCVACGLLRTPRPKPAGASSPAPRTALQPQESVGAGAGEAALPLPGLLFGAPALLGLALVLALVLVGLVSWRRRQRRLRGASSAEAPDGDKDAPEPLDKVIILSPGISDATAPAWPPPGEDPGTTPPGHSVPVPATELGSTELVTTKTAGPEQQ
Described as above.

The target of assay [15] is T1, human BCMA (huBCMA), full length, on …. The assay can be described thus: FACS, H929 cells.
For assay [16] the target is unchanged. The assay can be described thus: FACS.
Assay [17] addresses T7, cynomolgus BCMA, on transiently …. The assay can be described thus: FACS.
Assay [18] addresses T9, TACI, full length, on transiently …. The assay can be described thus: FACS.
The target of assay [19] is T10, BAFF-R, full length, on transiently …. The assay can be described thus: FACS.
Assay [20] concerns the target T1, human BCMA (huBCMA), full length, on …. The assay can be described thus: FACS on H929 cells, native BCMA, relative binding, indirect.
Assay [21] has the same target. Briefly: FACS.
For assay [22], the target named is T7, cynomolgus BCMA, on transiently …. Briefly: FACS. The source holds these as a separate data set.
Assay [23] concerns the target T9, TACI, full length, on transiently …. The assay can be described thus: FACS. This is another data set of the same source.
The target in assay [24] is T7, cynomolgus BCMA, on transiently …. The assay can be described thus: FACS O/N.
Assay [25] concerns the target T1, human BCMA (huBCMA), full length, on …. Briefly: APRIL blocking FACS. More on the design: concentration or dose not given beside the values.

Positions count from the first letter of the chain named. Names and notes keep the numbering of the source. Like-named read-outs stand apart in the source and are kept apart here.

T7 sequence (Q02223 other isoform, or with tags, fused parts or gaps): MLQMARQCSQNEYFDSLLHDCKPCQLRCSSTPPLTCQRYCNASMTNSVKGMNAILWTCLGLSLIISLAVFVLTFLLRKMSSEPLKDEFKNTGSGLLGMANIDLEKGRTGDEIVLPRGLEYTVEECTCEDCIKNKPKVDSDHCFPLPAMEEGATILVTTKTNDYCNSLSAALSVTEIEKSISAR

B1: 2A1 (parental fully human anti-huBCMA monoclonal antibody) (antibody, human IgG1, lambda, V domains shown)
VH: EVQLVESGGGLVKPGRSLRLSCTASGFTFGDYALSWFRQAPGKGLEWVGVSRSKAYGGTTDYAASVKGRFTISRDDSKSFAYLQMNSLKTEDTAVYYCCSSGYSSGWTPFDYWGQGTLVTVSS
VL: not shown
notes: also called Ab-5; Ab-18
The EC50 (read off the curve) is the concentration that produces a half-maximal response. The term Kd denotes the constant that tells how readily two partners part at equilibrium. Take B1: the “ADCC EC50, calcein-AM labelled H929 target cells” value in assay [1] was 11 ng/mL. The “EC50 (read off the curve)” value in [2] was roughly 200 ng/mL; in assay [3] it was roughly 100 ng/mL; in assay [4], roughly 300 ng/mL. Besides, the equilibrium dissociation constant (Kd) in assay [5] turned out to be 0.027 nM; in assay [10], 1.1 nM; in assay [11] it was 0.905 nM. For the same molecule, the binding result is given as “binds” in assay [6]; “binds” in assay [7]; “binds” in [8]; “binds” in assay [9]; “binds” in assay [12]; “no binding” in assay [13]. For the same molecule, in assay [14], the binding result was “no binding”.

B2: 2A1CV4 (antibody, human IgG1, lambda, V domains shown)
VH: B1 VH with R16G, T23A, C99A
VL: not shown
notes: IgG1 covariance mutein of 2A1; also called Ab-38; P61055.3
Regarding B2, the binding result in [15] was “binds”.

B3: 1E1 (fully human anti-huBCMA monoclonal antibody) (antibody, IgG1, V domains shown)
VH: QVQLVQSGAEVKKPGASVKVSCKASGYTFTGHYIHWVRQAPGQGLEWMGWIYPNSGGTNYAQKFQGRVTMTRDTSISTAYMELSRLRSDDSAVYYCAREGMVTGDYYYYRMDVWGQGTTVIVSS
VL: QPVLTQPPSASASLGASVTLTCSLSSGYSNYKVDWYQQRPGKGPRFVMRVGIGGIVGSKGDGIPDRFSVLGSGLNRYLTIKNIQEEDESDFHCGADHGSGNNFVYVFGTGTKVTVLG
notes: Recombinantly cloned as IgG1; also called Ab-4
For the molecule B3, the “ADCC EC50, calcein-AM labelled H929 target cells” value in [1] was 76 ng/mL. In addition, the Kd was 0.113 nM in [5], 2.8 nM in [10] and greater than 100 nM in assay [11]. Besides, the binding result in [13] and in assay [14] was “no binding” throughout.

B4: 33D4 (antibody, V domains shown)
VH: QVQLQQSGPGLVKPSQTLSLTCAISGDSVSSTNVAWNWIRQSPSRGLEWLGGTFYRSNWYNDYAISVKSRITINPDTSKNQFSLQLNSVTPEDTAVYYCARFYSWNSYFDYWGQGILVTVSS
VL: B3 VL with S23T, Q38H, I52T, G100E, N101T
notes: Tested as purified hybridoma IgG2 or IgG4; also called Ab-14; 33D4.1
In the case of B4, the MFI came to 89900 in assay [16], 19400 in assay [17], 261 in [18] and 723 in assay [19]. For the same molecule, the binding result in [18] and in assay [19] was “no binding” in each case.

B5: 32B5-MCC-DM1 (antibody drug conjugate) (other)
VH: EVQLLESGGALVQPGGSLRLSCAASGFTFSSYAMNWVRQAPGKGLEWVSAISVGGDTYYADSVKGRFTISRDNSKNTLYLHVNSLSAEDSAVYYCAKDQVTLVRGVWYYYGLDVWGQGTTVTVSS
VL: VIVLIQSPLSLPVTPGEPASISCRSSQSLLHSNGNNYLDWYLQKPGQSPHLLISLGSNRTSGVPDRFSGSGSGTDFTLKISRVEAEDVGFYYCMQALQPPRRFGQGTKLEIKR
modifications: antibody carries DM1 through the MCC linker; sites not stated
For orientation: EC50 means the concentration giving half of the maximal effect. As for B5, the “H929 cell growth inhibition IC50 (CellTiter-Glo, 96 h)” value in assay [1] came out at 506 pM. The molecule further returned an EC50 in assay [20] of 7 nM.

B6: 32B5 (antibody, V domains shown)
VH: B5 VH
VL: B5 VL
notes: 32B5.1 was purified hybridoma IgG2 or IgG4; later converted to human IgG1; also called Ab-10; 32B5.1
For the molecule B6, the MFI in assay [21] worked out at 137000. This molecule also came in with an MFI in [22] of 259000. Besides, in assay [23], the MFI turned out to be 274 and the binding result is listed as “no binding”. In [24], this molecule had an MFI of 108. Further, in [25], the “% Inhibition n=1” value is 87%, the “% Inhibition n=2” value came to 116% and the “Avg. % Inhibition” value was determined as 101%. For the same molecule, in assay [20], the EC50 was 4.2 nM.

B7: 32B5 (T71A) (antibody, human IgG1, kappa, V domains shown)
VH: B5 VH
VL: B5 VL with T60A
notes: also called 32B5 (LC: T71A); P70170.3
Take B7: in assay [4], the binding result is on record as “binds”.

B8: 40D7 (antibody, V domains shown)
VH: B5 VH with H81Q, V82M, S86R, S90T, L102M
VL: B5 VL with V1D, L4M, Y37F, F67L, F90I, Q98R
notes: also called Ab-17; 40D7.1
Turning to B8, the results for the MFI in [16], in assay [17] and in assay [18] were 36300, 39300 and 1390, respectively. For the same molecule, the binding result in assay [18] was “no binding”.

The values are drawn from patent US20170165373A1 (Amgen, published 2017).
